This experiment has as its target T1, cynomolgus LAG-3 (cynomolgus monkey).
T1 construct: whole, on cells; also called cynomolgus LAG-3 on transfected CHO cells
The experiment in a line: flow cytometry on transfected CHO cells and activated cynomolgus T cells. Background: Flow cytometry measures light scatter and fluorescence of single cells or particles in a stream.

From patent US20250163155A1 (Bristol-Myers Squibb, published 2025) come the findings set out here.

B1: BMS-986016 (antibody, human IgG4 S228P, kappa, V domains shown)
VH: QVQLQQWGAGLLKPSETLSLTCAVYGGSFSDYYWNWIRQPPGKGLEWIGEINHRGSTNSNPSLKSRVTLSLDTSKNQFSLKLRSVTAADTAVYYCAFGYSDYEYNWFDPWGQGTLVTVSS
VL: EIVLTQSPATLSLSPGERATLSCRASQSISSYLAWYQQKPGQAPRLLIYDASNRATGIPARFSGSGSGTDFTLTISSLEPEDFAVYYCQQRSNWPLTFGQGTNLEIKR
notes: also called anti-LAG-3 antibody
One may read the EC50 as the concentration at which the effect is half-maximal. The low end stands for an effect from little substance, the high end for a need for much substance. B1 yielded an EC50 of 21.5 to 34.3 nM.
